Consider nine sequences from the supplement of paper PMC10065799, “High-throughput profiling of sequence recognition by tyrosine kinases and SH2 domains using bacterial peptide display” (eLife, 2023).

In one data set the target is EPHB1 (UniProt P54762). Briefly: phosphorylation enrichment, bacterial display (enrichment ratio); higher = better substrate or ligand; peptides without Tyr show the background.
In another data set the target is Fes (UniProt P07332). The data set is described as above.
The subject of the next data set is AncSZ. The data set is described as above.
In another data set the target is Fyn (UniProt P06241). The description is as above.
Fyn, sequence (P06241 whole entry, looked up): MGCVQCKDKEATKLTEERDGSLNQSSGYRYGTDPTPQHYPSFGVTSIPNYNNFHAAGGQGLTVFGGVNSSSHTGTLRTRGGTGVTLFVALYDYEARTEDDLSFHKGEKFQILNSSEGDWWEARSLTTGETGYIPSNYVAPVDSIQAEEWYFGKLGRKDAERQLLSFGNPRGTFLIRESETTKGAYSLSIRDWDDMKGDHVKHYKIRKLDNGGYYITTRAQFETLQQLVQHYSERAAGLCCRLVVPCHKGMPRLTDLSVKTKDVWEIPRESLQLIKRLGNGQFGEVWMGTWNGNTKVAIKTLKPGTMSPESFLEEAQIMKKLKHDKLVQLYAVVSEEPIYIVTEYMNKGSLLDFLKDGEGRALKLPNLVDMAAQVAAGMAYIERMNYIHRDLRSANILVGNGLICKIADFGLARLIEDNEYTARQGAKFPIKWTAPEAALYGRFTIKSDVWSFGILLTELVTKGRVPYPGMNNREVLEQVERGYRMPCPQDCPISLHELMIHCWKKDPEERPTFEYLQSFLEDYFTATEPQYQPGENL
For another data set, the target named is MERTK (UniProt Q12866). The description is as above.
MERTK, sequence (Q12866 whole entry, looked up): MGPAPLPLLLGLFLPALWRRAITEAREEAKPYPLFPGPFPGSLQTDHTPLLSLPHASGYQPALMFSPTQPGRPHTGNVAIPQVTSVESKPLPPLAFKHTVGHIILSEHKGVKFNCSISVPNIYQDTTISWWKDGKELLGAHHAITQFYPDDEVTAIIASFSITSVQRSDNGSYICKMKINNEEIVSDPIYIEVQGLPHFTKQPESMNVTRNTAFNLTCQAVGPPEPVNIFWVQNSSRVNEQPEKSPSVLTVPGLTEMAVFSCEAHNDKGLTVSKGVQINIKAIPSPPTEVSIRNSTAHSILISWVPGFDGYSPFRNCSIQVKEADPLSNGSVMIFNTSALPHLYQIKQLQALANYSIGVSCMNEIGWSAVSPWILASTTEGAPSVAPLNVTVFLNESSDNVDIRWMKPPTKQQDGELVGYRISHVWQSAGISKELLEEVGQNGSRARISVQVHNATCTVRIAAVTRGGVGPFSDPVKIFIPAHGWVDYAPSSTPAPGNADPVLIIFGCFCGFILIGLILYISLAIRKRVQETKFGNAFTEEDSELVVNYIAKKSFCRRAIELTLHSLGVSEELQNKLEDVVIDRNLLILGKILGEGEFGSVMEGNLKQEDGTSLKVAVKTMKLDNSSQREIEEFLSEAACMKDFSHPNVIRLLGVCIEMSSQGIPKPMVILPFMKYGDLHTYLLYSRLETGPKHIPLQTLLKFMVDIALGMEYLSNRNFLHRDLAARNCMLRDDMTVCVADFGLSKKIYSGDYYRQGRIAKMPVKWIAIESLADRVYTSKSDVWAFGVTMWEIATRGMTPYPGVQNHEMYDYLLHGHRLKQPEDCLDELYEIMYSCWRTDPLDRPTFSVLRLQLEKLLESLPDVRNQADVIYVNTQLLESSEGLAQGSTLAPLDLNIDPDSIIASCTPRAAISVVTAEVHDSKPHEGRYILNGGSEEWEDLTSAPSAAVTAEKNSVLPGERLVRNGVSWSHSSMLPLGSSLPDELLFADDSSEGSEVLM
The test system of a further data set is c-Src. The data set is described as above.
The next data set concerns Fer (mouse). The description is as above.
A further data set addresses FGFR3 (UniProt P22607). The data set is described as above.
The next data set addresses Jak2 (UniProt O60674). The description is as above.
The target of a further data set is FGFR1 (UniProt P11362). The description is as above.
FGFR1, sequence (P11362 whole entry, looked up): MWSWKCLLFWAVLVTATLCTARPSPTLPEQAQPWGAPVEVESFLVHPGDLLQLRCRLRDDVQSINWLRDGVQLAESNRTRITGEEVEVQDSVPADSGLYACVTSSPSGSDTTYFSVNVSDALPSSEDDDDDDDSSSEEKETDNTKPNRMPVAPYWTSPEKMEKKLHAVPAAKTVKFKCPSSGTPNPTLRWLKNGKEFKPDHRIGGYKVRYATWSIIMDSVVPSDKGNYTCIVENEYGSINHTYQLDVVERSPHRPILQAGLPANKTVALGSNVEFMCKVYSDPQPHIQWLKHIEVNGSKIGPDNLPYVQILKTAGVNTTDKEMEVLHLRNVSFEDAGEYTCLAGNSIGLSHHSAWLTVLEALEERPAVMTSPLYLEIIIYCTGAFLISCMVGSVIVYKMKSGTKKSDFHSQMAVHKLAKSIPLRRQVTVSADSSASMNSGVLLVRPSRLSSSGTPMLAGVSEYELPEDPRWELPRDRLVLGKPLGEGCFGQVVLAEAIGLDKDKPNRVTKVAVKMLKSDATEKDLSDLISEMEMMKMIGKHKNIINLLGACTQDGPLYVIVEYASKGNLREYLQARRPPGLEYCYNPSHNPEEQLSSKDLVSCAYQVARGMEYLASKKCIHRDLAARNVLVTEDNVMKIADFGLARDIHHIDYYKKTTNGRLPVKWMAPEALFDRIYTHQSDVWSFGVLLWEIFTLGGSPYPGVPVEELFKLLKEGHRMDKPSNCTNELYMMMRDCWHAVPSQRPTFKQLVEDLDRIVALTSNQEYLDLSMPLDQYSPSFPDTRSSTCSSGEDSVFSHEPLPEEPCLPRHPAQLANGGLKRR
The subject of the next data set is c-Abl (mouse). The description is as above.
The target in a further data set is EPHB2 (UniProt P29323). Described as above.
For another data set, the target named is Hck (UniProt P08631). The description is as above.
Hck, sequence (P08631 whole entry, looked up): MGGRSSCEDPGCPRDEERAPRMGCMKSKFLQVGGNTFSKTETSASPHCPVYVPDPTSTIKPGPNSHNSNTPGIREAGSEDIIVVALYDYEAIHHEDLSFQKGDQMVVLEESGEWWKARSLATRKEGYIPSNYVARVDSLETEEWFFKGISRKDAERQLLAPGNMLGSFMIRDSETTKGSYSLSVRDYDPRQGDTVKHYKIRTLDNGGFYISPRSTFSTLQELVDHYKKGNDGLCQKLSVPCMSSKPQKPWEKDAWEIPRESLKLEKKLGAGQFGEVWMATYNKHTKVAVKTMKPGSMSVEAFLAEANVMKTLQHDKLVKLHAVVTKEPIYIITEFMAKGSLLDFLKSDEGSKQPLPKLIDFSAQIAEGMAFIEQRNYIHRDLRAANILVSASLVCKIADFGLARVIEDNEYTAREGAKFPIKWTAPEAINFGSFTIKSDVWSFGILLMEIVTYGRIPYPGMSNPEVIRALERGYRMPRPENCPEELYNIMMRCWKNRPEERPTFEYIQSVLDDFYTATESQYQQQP
In the next data set the target is c-Src SH2. Briefly: SH2 binding enrichment of the phosphorylated peptide, bacterial display (enrichment ratio); higher = better substrate or ligand; peptides without Tyr show the background.
The next data set has as its target Grb2 SH2 (UniProt P62993). Described as above.
Another data set deals with SHP2-C SH2. Described as above.
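Wherever SH2 binding enrichment of the phosphorylated peptide, bacterial display is given: peptide library displayed on the E. coli surface as eCPX fusions, selected cells deep-sequenced, score is each peptide's frequency after selection divided by its frequency in the input.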
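Wherever phosphorylation enrichment, bacterial display is given: 11-residue human phosphosite peptides and single-mutation variants displayed on the E. coli surface, counted by deep sequencing, each peptide's frequency after selection divided by its frequency in the unselected input library; frequency after pTyr selection over input frequency; kinase dosed for 20-30% of maximal phosphorylation in three min.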

EPHB1, sequence (P54762 whole entry, looked up): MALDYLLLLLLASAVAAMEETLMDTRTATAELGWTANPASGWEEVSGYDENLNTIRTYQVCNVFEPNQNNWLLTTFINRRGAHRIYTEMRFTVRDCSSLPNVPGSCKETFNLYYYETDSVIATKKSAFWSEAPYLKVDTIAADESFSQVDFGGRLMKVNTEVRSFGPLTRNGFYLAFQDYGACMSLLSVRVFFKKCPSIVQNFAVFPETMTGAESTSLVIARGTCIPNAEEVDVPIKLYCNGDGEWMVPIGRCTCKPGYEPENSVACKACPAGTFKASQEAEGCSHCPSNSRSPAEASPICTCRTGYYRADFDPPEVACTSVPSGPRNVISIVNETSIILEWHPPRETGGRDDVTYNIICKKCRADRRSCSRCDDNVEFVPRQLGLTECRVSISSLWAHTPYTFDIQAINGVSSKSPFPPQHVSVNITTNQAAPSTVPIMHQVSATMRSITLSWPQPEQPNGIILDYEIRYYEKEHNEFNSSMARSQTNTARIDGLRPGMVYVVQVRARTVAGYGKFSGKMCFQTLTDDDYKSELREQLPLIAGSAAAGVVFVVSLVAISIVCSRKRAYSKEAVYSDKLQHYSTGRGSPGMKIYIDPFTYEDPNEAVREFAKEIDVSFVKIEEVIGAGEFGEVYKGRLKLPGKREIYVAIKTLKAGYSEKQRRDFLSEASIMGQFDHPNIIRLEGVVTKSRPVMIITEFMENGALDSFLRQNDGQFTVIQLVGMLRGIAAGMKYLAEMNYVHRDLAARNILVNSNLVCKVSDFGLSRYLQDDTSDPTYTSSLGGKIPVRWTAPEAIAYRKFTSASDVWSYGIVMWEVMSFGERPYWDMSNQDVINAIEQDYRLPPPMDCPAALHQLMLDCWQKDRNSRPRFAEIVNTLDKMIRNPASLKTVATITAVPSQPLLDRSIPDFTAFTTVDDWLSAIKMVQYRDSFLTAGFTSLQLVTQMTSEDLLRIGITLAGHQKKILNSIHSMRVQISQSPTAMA
Grb2 SH2, sequence (P62993 whole entry, looked up): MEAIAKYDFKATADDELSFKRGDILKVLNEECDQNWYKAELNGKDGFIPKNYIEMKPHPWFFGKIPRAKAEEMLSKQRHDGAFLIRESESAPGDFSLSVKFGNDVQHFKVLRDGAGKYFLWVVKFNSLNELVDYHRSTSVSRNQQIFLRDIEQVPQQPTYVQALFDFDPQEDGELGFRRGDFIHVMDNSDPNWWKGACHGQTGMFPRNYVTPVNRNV
FGFR3, sequence (P22607 whole entry, looked up): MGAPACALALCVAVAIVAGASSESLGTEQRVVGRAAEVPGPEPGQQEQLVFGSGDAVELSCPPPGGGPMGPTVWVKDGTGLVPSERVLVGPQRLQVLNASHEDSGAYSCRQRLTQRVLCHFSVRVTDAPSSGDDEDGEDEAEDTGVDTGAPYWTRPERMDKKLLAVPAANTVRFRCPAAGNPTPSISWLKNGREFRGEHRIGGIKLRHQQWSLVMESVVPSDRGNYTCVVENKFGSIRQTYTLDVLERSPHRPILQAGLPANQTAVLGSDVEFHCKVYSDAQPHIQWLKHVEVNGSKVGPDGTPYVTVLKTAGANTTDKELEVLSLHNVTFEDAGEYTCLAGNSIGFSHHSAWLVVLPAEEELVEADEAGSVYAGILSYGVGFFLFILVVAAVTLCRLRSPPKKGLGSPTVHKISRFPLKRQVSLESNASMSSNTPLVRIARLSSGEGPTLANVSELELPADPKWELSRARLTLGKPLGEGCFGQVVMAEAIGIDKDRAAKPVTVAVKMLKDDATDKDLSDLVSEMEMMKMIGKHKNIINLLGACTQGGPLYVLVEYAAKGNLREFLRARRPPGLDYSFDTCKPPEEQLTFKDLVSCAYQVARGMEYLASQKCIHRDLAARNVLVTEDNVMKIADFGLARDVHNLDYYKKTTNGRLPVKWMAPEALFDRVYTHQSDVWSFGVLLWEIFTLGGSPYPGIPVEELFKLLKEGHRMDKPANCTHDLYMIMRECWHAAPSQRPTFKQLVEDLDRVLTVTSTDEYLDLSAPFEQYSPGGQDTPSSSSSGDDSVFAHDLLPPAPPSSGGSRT

Turning to CRVEPYGENFN [APOA4_Y310_R305C], the phosphorylation enrichment in the data set with EPHB1 turned out to be 0.675; with Fes, 1.57; in the data set on AncSZ, 1.28; with Fyn, 0.441; with MERTK, 0.583; with c-Src it was 0.616. The phosphorylation enrichment is 0.649 in the data set on Fer (mouse); 0.869 in the data set with FGFR3; 1.28 with Jak2; 0.603 with FGFR1; 1.1 with c-Abl (mouse); 0.651 with EPHB2. For the same sequence, in the data set with Hck, the phosphorylation enrichment worked out at 0.608. For the same sequence, the SH2 binding enrichment is 0.675 with c-Src SH2, 0.703 in the data set with Grb2 SH2 and 0.712 with SHP2-C SH2.
EQKKYYNAVKK [SCN5A_Y1495_M1498V]: the phosphorylation enrichment with EPHB1 worked out at 0.341; in the data set with Fes, 0.63; with AncSZ it was 0.529; with Fyn it was 0.328; with MERTK it was 0.563; with c-Src it was 0.476. Moreover, the phosphorylation enrichment in the data set on Fer (mouse) turned out to be 0.414; in the data set with FGFR3, 0.466; with Jak2, 0.634; with FGFR1, 0.425; in the data set on c-Abl (mouse), 0.511; in the data set with EPHB2 it was 0.34. Moreover, the phosphorylation enrichment with Hck worked out at 0.352. For the same sequence, the SH2 binding enrichment was determined as 0.696 with c-Src SH2, 1.16 with Grb2 SH2 and 1.01 with SHP2-C SH2.
Consider ATKNDYWAMLA [WWOX_Y287_P282A], for which the phosphorylation enrichment with EPHB1 came out at 1.72; with Fes, 1; with AncSZ it was 1.17; with Fyn, 0.384; with MERTK it was 0.499; in the data set with c-Src it was 0.418. Moreover, the phosphorylation enrichment came out at 0.452 in the data set with Fer (mouse); 3.97 in the data set with FGFR3; 1.02 with Jak2; 6.01 in the data set with FGFR1; 0.881 in the data set on c-Abl (mouse); 1.15 in the data set with EPHB2. The phosphorylation enrichment with Hck was determined as 0.453. The SH2 binding enrichment in the data set with c-Src SH2 turned out to be 0.497; with Grb2 SH2, 0.677; with SHP2-C SH2 it was 0.752.
Turning to DPEATYTTSGS [EPHA2_Y772_G777S], the phosphorylation enrichment in the data set with EPHB1 worked out at 0.476; in the data set with Fes it was 0.981; with AncSZ, 0.889; in the data set with Fyn, 0.518; with MERTK, 0.34; with c-Src it was 0.633. Besides, the phosphorylation enrichment stood at 0.48 with Fer (mouse); 0.596 in the data set with FGFR3; 0.694 in the data set with Jak2; 0.425 with FGFR1; 0.617 in the data set on c-Abl (mouse); 0.518 in the data set with EPHB2. For the same sequence, in the data set with Hck, the phosphorylation enrichment is 0.598. Besides, the SH2 binding enrichment was 0.571 with c-Src SH2, 0.873 in the data set with Grb2 SH2 and 0.731 in the data set with SHP2-C SH2.
Turning to CSRRLYQLTKL [AR_Y858_F857L], the phosphorylation enrichment amounted to 0.451 with EPHB1; 0.769 with Fes; 0.666 with AncSZ; 0.621 with Fyn; 0.558 with MERTK; 0.657 in the data set on c-Src. Besides, the phosphorylation enrichment with Fer (mouse) is 0.499; with FGFR3 it was 0.456; with Jak2, 0.794; with FGFR1 it was 0.517; in the data set with c-Abl (mouse), 0.728; in the data set with EPHB2 it was 0.59. Moreover, the phosphorylation enrichment in the data set with Hck amounted to 0.858. Besides, the SH2 binding enrichment with c-Src SH2 turned out to be 0.524; with Grb2 SH2 it was 0.641; in the data set with SHP2-C SH2, 0.449.
For the sequence YFVVEYRNQKP [MUC17_Y4332_D4334N], the phosphorylation enrichment in the data set with EPHB1 came out at 0.931; in the data set with Fes it was 1.36; in the data set on AncSZ, 1.72; with Fyn, 0.842; in the data set with MERTK, 4.22; in the data set on c-Src, 0.836. Moreover, the phosphorylation enrichment in the data set with Fer (mouse) turned out to be 0.738; with FGFR3, 9.02; in the data set with Jak2 it was 2.32; in the data set with FGFR1, 11.1; with c-Abl (mouse), 0.722; with EPHB2, 0.842. For the same sequence, the phosphorylation enrichment in the data set with Hck came to 0.605. For the same sequence, the results for the SH2 binding enrichment with c-Src SH2, in the data set with Grb2 SH2 and with SHP2-C SH2 were 2.83, 1.58 and 3.19, respectively.
YMRGMYFRMTD [PLA2G6_Y541_K545T]: the phosphorylation enrichment stood at 0.63 in the data set with EPHB1; 1.16 with Fes; 1.21 in the data set on AncSZ; 0.434 with Fyn; 0.773 in the data set with MERTK; 0.427 in the data set with c-Src. For the same sequence, the phosphorylation enrichment with Fer (mouse) amounted to 0.481; with FGFR3 it was 0.908; with Jak2, 1.41; with FGFR1, 0.592; in the data set on c-Abl (mouse), 0.771; in the data set with EPHB2, 0.566. In addition, the phosphorylation enrichment in the data set with Hck turned out to be 0.578. In addition, the SH2 binding enrichment stood at 1.2 with c-Src SH2, 0.959 with Grb2 SH2 and 1.83 with SHP2-C SH2.
As to SRNKPYISWPS [CDC42BPB_Y1638], the phosphorylation enrichment in the data set with EPHB1 is 0.417; with Fes it was 0.612; in the data set on AncSZ it was 0.583; with Fyn, 0.436; with MERTK, 0.441; in the data set with c-Src, 0.483. In addition, the phosphorylation enrichment in the data set on Fer (mouse) was determined as 0.345; with FGFR3 it was 0.511; with Jak2, 0.977; in the data set with FGFR1, 0.469; with c-Abl (mouse), 0.477; in the data set with EPHB2, 0.395. Besides, the phosphorylation enrichment in the data set with Hck is 0.485. Further, the SH2 binding enrichment turned out to be 1.32 in the data set with c-Src SH2, 1.61 with Grb2 SH2 and 1.51 in the data set with SHP2-C SH2.
Consider ADYYDYGHGLS [KHDRBS3_Y304], for which the phosphorylation enrichment with EPHB1 stood at 17.9; with Fes, 1.11; in the data set on AncSZ, 3.92; in the data set with Fyn it was 6.6; with MERTK, 4.16; in the data set on c-Src, 4.65. For the same sequence, the phosphorylation enrichment in the data set on Fer (mouse) was found to be 1.95; in the data set with FGFR3, 16.8; in the data set with Jak2 it was 5.75; with FGFR1 it was 18.5; in the data set with c-Abl (mouse) it was 0.986; with EPHB2 it was 20.5. Besides, in the data set with Hck, the phosphorylation enrichment was found to be 6.46. The values for the SH2 binding enrichment with c-Src SH2, with Grb2 SH2 and with SHP2-C SH2 were 0.601, 1.04 and 0.634, respectively.
